Reference: the Human Domainome abundance scans (Beltran et al. 2025)
± gives the uncertainty stated by the source.

B1: Integrator complex subunit 12, residues 155 to 213; numbered along this chain, Q96CB8 (parent)
chain: AMEMGLACVVCRQMMVASGNQLVECQECHNLYHRDCHKPQVTDKEANDPRLVWYCARCT

Variants of: B1
Assay: abundance fitness (aPCA) (normalised: wild type 0, dead -1); higher = more abundant; growth selection in yeast, the domain comes from the species named
Conditions: Homo sapiens

Variant	abundance fitness
V9C	0.049 ± 0.041
V9N	-0.223 ± 0.038
V9T	-0.02 ± 0.038
V9L	-0.202 ± 0.034
V9Q	0.051 ± 0.069
V9K	-0.279 ± 0.07
V9D	-0.248 ± 0.049
V9G	-0.216 ± 0.048
V9R	-0.181 ± 0.04
G19A	-0.042 ± 0.042
G19K	0.065 ± 0.078
G19N	-0.014 ± 0.05
G19P	-0.069 ± 0.095
G19V	-0.088 ± 0.035
G19H	-0.072 ± 0.047
A1Y	-0.168 ± 0.13
A1F	-0.161 ± 0.11
A1H	0.245 ± 0.17
A1M	0.03 ± 0.2
A1G	-0.115 ± 0.044
A1S	0.046 ± 0.071
A1N	0.109 ± 0.086
E27N	-0.009 ± 0.036
E27M	-0.103 ± 0.054

Variant	abundance fitness
E27Y	-0.208 ± 0.034
E27T	-0.036 ± 0.039
E27R	-0.001 ± 0.034
E27P	-0.67 ± 0.06
E27L	-0.105 ± 0.034
E27F	-0.143 ± 0.035
W53V	-0.398 ± 0.064
W53N	-0.112 ± 0.094
W53A	-0.115 ± 0.064
W53D	-0.104 ± 0.14
C8F	-1 ± 0.051
C8W	-1.38 ± 0.22
C8P	-0.633 ± 0.054
C8T	-0.814 ± 0.058
C8R	-0.841 ± 0.057
C8N	-0.675 ± 0.042
C8I	-1.04 ± 0.063
C28A	-0.616 ± 0.049
C28W	-0.891 ± 0.058
C28E	-0.845 ± 0.075
C28Q	-0.801 ± 0.08
C28Y	-0.714 ± 0.04
C28I	-0.954 ± 0.054
C28S	-0.68 ± 0.034

Variant	abundance fitness
C28F	-0.818 ± 0.052
C28K	-0.648 ± 0.072
L22T	-0.084 ± 0.049
V10K	-0.242 ± 0.05
V10Q	-0.157 ± 0.061
V10G	-0.206 ± 0.042
V10R	-0.347 ± 0.039
V10Y	-0.202 ± 0.035
N47Y	-0.223 ± 0.08
N47V	-0.066 ± 0.048
N47G	0.02 ± 0.053
N47T	-0.075 ± 0.05
N47C	-0.013 ± 0.095
N47F	-0.162 ± 0.052
N47I	-0.11 ± 0.081
Q40L	-0.045 ± 0.045
Q40G	0.001 ± 0.037
Q40W	-0.102 ± 0.057
Q40F	-0.023 ± 0.086
Q40A	-0.002 ± 0.043
Q40M	-0.112 ± 0.064
Q40I	0.023 ± 0.098
Q40D	-0.07 ± 0.071
Q40N	0.051 ± 0.075

Variant	abundance fitness
Q40Y	-0.264 ± 0.093
Q40K	-0.035 ± 0.061
A46G	-0.029 ± 0.038
A46S	-0.075 ± 0.052
A46N	-0.082 ± 0.08
A46D	-0.092 ± 0.072
A46L	0.003 ± 0.048
A46F	0.07 ± 0.077
T59I	-0.103 ± 0.089
T59D	-0.072 ± 0.17
T59S	0.045 ± 0.064
R50D	-0.017 ± 0.091
R50G	0.014 ± 0.049
R50F	-0.126 ± 0.084
R50S	0.057 ± 0.059
R50I	-0.242 ± 0.089
R50H	-0.06 ± 0.11
R50L	-0.068 ± 0.045
V52C	-0.009 ± 0.092
V52M	-0.033 ± 0.055
V52K	0.103 ± 0.065
V52H	-0.036 ± 0.076
L6D	0.075 ± 0.038
L6E	-0.106 ± 0.059

Variant	abundance fitness
L6I	0.007 ± 0.034
L6C	-0.054 ± 0.037
L6K	0.173 ± 0.054
V23F	-0.021 ± 0.033
V23I	0.001 ± 0.034
V23Y	-0.046 ± 0.037
V23E	-0.251 ± 0.067
V23A	-0.179 ± 0.039
R12W	-0.405 ± 0.066
R12F	-0.226 ± 0.034
R12G	0.028 ± 0.037
R12P	-0.546 ± 0.049
R12K	0.052 ± 0.053
R12Q	0.047 ± 0.068
R12C	-0.069 ± 0.039
A7M	-0.069 ± 0.054
A7G	-0.155 ± 0.04
A7N	0.039 ± 0.036
A7S	0.01 ± 0.034
A7D	-0.027 ± 0.04
A7Q	-0.077 ± 0.058
M4I	0.023 ± 0.036
M4Q	-0.055 ± 0.09
L31S	0.046 ± 0.032

Variant	abundance fitness
L31H	0.057 ± 0.04
L31K	0.103 ± 0.055
L31C	0.047 ± 0.035
M14V	0.06 ± 0.035
M14H	-0.02 ± 0.11
M14T	0.016 ± 0.064
M14R	0.067 ± 0.046
M14P	-0.007 ± 0.14
R34I	-0.019 ± 0.055
R34L	0.037 ± 0.045
P39M	-0.248 ± 0.064
P39H	-0.347 ± 0.12
P39V	-0.257 ± 0.049
P39N	-0.144 ± 0.11
P39Y	-0.295 ± 0.12
P39T	-0.087 ± 0.056
D48I	-0.187 ± 0.14
D48W	-0.149 ± 0.069
D48E	-0.054 ± 0.052
D48K	-0.027 ± 0.056
D48V	-0.063 ± 0.057
D48G	-0.083 ± 0.045
D48R	-0.154 ± 0.044
C55F	-1.05 ± 0.21

Variant	abundance fitness
C55G	-0.913 ± 0.06
C55E	-0.765 ± 0.067
N30G	0.03 ± 0.039
N30E	-0.103 ± 0.072
N30H	-0.049 ± 0.065
N30I	-0.231 ± 0.041
N30L	-0.002 ± 0.047
N30W	-0.091 ± 0.086
N30T	-0.105 ± 0.058
Q21V	-0.068 ± 0.041
Q21I	-0.091 ± 0.046
Q21T	0.084 ± 0.057
Q21R	0.004 ± 0.045
Q21A	-0.026 ± 0.049
Y54A	-0.093 ± 0.047
Y54V	-0.068 ± 0.045
Y54H	0.119 ± 0.082
Y54T	0.067 ± 0.062
Y54P	-0.35 ± 0.059
Y54S	0.04 ± 0.052
Y54G	-0.187 ± 0.049
Y54Q	0.027 ± 0.065
Y54L	0.026 ± 0.046
E24V	-0.262 ± 0.039

Variant	abundance fitness
E24Y	-0.493 ± 0.052
E24R	-0.094 ± 0.049
E24D	-0.117 ± 0.045
E24T	-0.157 ± 0.055
E24S	-0.236 ± 0.036
D43M	-0.056 ± 0.045
D43W	-0.189 ± 0.041
D43C	-0.078 ± 0.06
D43V	-0.057 ± 0.039
D43P	-0.093 ± 0.041
D43A	-0.05 ± 0.039
D43L	-0.098 ± 0.034
L51T	0.037 ± 0.07
L51Q	0.02 ± 0.055
L51N	-0.197 ± 0.077
L51F	-0.048 ± 0.081
L51K	0.089 ± 0.063
C58R	-0.929 ± 0.061
C58F	-1.11 ± 0.18
C58P	-0.762 ± 0.13
C58Y	-1.08 ± 0.12
C58N	-1.05 ± 0.18
C58W	-1.26 ± 0.12
C58I	-1.39 ± 0.24

Variant	abundance fitness
C58V	-1.04 ± 0.091
Q26Y	-0.017 ± 0.051
Q26R	-0.008 ± 0.042
Q26M	-0.184 ± 0.08
Q26L	-0.111 ± 0.049
Q26H	-0.012 ± 0.077
C11S	-0.877 ± 0.046
C11V	-1.06 ± 0.07
C11G	-0.958 ± 0.06
C11D	-0.818 ± 0.064
C11M	-1.07 ± 0.14
C11A	-0.937 ± 0.078
C11Q	-1 ± 0.1
S18P	0.077 ± 0.055
S18Y	-0.183 ± 0.038
S18E	-0.001 ± 0.055
S18V	-0.102 ± 0.032
S18M	-0.078 ± 0.057
S18L	-0.107 ± 0.035
S18Q	0.001 ± 0.062
D35Y	-0.074 ± 0.034
D35T	0.023 ± 0.038
D35N	-0.052 ± 0.035
D35S	-0.034 ± 0.031

Variant	abundance fitness
D35Q	0.094 ± 0.054
D35P	-0.215 ± 0.044
D35R	-0.029 ± 0.034
A17F	-0.233 ± 0.04
A17D	-0.211 ± 0.044
A17R	-0.03 ± 0.038
A17P	0.005 ± 0.061
A17M	-0.049 ± 0.061
C25N	-0.773 ± 0.11
C25W	-0.959 ± 0.25
C25V	-0.819 ± 0.082
C25G	-0.66 ± 0.078
C25H	-0.72 ± 0.11
C25I	-0.906 ± 0.1
C25P	-0.869 ± 0.19
K38C	-0.089 ± 0.077
K38F	-0.139 ± 0.073
K38L	-0.096 ± 0.041
K38S	0.016 ± 0.041
K38Q	-0.015 ± 0.054
H33S	-0.721 ± 0.036
H33P	-0.72 ± 0.051
H33L	-0.869 ± 0.044
P49T	0.023 ± 0.073

Variant	abundance fitness
P49N	-0.17 ± 0.12
P49Y	-0.258 ± 0.1
H37A	-0.048 ± 0.035
H37D	-0.002 ± 0.035
H37I	-0.007 ± 0.035
H37W	-0.297 ± 0.058
H37C	-0.144 ± 0.034
H37R	-0.315 ± 0.038
H37N	-0.144 ± 0.035
A56F	-0.265 ± 0.069
A56M	-0.02 ± 0.055
A56D	-0.273 ± 0.064
A56C	-0.02 ± 0.075
A56Y	-0.136 ± 0.079
A56S	-0.054 ± 0.047
A56P	-0.185 ± 0.054
R57L	-0.122 ± 0.042
R57E	-0.013 ± 0.043
R57H	-0.046 ± 0.081
R57V	-0.074 ± 0.038
R57P	-0.013 ± 0.048
R57M	-0.134 ± 0.046
R57Q	-0.034 ± 0.051
R57I	-0.103 ± 0.086

Variant	abundance fitness
R57S	-0.026 ± 0.043
E3P	-0.359 ± 0.048
E3V	-0.119 ± 0.033
E3G	-0.167 ± 0.034
E3C	-0.168 ± 0.034
E3Q	-0.102 ± 0.071
E3Y	-0.222 ± 0.039
H29R	-0.053 ± 0.033
H29N	-0.117 ± 0.036
H29Y	-0.182 ± 0.037
H29F	-0.19 ± 0.036
H29D	-0.26 ± 0.035
H29W	-0.426 ± 0.066
M15K	0.094 ± 0.064
M15L	-0.013 ± 0.036
M15T	0.04 ± 0.039
M15D	0.09 ± 0.035
M15H	0.083 ± 0.042
M15F	-0.053 ± 0.033
M15A	0.067 ± 0.037
M15W	-0.171 ± 0.048
Q13W	-0.758 ± 0.07
C36F	-0.775 ± 0.045
C36M	-0.63 ± 0.064

Variant	abundance fitness
C36Q	-0.672 ± 0.077
C36L	-0.763 ± 0.043
C36E	-0.696 ± 0.066
C36Y	-0.727 ± 0.043
V16F	-0.02 ± 0.035
V16S	0.011 ± 0.03
V16T	0.044 ± 0.044
V16R	0.019 ± 0.035
V16L	-0.022 ± 0.037
V16C	-0.029 ± 0.035
V41P	-0.211 ± 0.065
V41W	-0.314 ± 0.056
V41I	0.135 ± 0.058
V41C	-0.276 ± 0.081
E45Q	-0.014 ± 0.073
E45L	-0.048 ± 0.049
E45P	-0.222 ± 0.078
E45Y	0.005 ± 0.094
E45G	-0.222 ± 0.049
Y32W	0.045 ± 0.058
Y32P	-0.611 ± 0.056
Y32L	-0.152 ± 0.038
Y32M	-0.143 ± 0.055
Y32K	-0.514 ± 0.066

Variant	abundance fitness
M2H	-0.136 ± 0.059
M2K	-0.013 ± 0.075
M2R	-0.054 ± 0.038
M2Q	-0.058 ± 0.12
M2S	0.065 ± 0.032
N20Y	-0.171 ± 0.034
N20R	-0.045 ± 0.038
N20G	-0.05 ± 0.032
N20L	-0.219 ± 0.035
N20H	-0.015 ± 0.038
N20F	-0.165 ± 0.035
K44S	-0.074 ± 0.046
K44Y	-0.486 ± 0.07
K44F	-0.139 ± 0.073
T42H	-0.089 ± 0.069
T42D	-0.107 ± 0.071
T42V	-0.136 ± 0.044
G5C	-0.143 ± 0.034
G5R	-0.058 ± 0.035
G5F	-0.28 ± 0.035
G5N	0.043 ± 0.037
G5I	-0.205 ± 0.039
